Assay results taken from patent US20030186419.

Target: rMBL-rMASP-2 complexes, P11226
Sequence (P11226 21-248, chain 1 of 2): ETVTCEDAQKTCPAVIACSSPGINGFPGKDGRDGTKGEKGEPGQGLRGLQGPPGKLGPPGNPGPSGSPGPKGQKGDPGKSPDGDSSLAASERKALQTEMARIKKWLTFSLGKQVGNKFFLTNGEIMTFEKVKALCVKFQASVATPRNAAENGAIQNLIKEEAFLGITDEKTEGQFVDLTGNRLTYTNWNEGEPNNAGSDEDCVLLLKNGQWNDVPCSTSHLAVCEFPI
Sequence (chain, as listed by the source, chain 2 of 2): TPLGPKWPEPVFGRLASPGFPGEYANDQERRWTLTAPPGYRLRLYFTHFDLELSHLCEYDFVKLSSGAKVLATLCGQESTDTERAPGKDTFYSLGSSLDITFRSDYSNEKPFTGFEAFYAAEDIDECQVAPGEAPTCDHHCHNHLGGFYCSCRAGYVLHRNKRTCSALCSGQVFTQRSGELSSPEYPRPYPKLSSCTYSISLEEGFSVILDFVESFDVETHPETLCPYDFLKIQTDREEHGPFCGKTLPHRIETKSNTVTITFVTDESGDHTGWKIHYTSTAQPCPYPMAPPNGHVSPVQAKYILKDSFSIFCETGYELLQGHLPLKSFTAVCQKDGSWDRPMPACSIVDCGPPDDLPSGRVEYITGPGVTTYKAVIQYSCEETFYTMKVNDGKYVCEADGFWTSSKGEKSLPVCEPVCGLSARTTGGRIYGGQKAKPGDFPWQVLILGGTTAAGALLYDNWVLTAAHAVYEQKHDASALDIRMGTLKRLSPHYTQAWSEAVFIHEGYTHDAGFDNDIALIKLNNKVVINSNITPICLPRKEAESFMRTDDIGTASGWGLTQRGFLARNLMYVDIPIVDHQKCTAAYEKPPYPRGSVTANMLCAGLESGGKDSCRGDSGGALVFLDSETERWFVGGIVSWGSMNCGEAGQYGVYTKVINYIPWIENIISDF

B1: rMASP-3 (recombinant MASP-3 from HEK 293EBNA cells transfected with the pMASP-3; 4.1 construct) (peptide)
chain: GSGALLSASWILTAAHVLRSQRRDTTVIPVSKEHVTVYL
In the case of B1, the “activation of C4 by rMBL-rMASP-2 complexes (bound C4 on mannan-coated wells, Eu-labelled anti-C4 antibody)” value is reported as “The activity of rMBL-rMASP-2 complexes was also inhibited by rMASP-3”.
